Assays:
c-Src SH2 = assay: SH2 binding enrichment of the phosphorylated peptide, bacterial display (enrichment ratio); higher = better substrate or ligand; peptides without Tyr show the background
SHP2-C SH2 = assay: as above
Grb2 SH2 = Grb2 SH2 (UniProt P62993); assay: as above
Hck = Hck (UniProt P08631); assay: phosphorylation enrichment, bacterial display (enrichment ratio); higher = better substrate or ligand; peptides without Tyr show the background
c-Abl (mouse) = assay: as above
FGFR1 = FGFR1 (UniProt P11362); assay: as above
c-Src = assay: as above
Fes = Fes (UniProt P07332); assay: as above
Chain of Fes (P07332 whole entry, looked up): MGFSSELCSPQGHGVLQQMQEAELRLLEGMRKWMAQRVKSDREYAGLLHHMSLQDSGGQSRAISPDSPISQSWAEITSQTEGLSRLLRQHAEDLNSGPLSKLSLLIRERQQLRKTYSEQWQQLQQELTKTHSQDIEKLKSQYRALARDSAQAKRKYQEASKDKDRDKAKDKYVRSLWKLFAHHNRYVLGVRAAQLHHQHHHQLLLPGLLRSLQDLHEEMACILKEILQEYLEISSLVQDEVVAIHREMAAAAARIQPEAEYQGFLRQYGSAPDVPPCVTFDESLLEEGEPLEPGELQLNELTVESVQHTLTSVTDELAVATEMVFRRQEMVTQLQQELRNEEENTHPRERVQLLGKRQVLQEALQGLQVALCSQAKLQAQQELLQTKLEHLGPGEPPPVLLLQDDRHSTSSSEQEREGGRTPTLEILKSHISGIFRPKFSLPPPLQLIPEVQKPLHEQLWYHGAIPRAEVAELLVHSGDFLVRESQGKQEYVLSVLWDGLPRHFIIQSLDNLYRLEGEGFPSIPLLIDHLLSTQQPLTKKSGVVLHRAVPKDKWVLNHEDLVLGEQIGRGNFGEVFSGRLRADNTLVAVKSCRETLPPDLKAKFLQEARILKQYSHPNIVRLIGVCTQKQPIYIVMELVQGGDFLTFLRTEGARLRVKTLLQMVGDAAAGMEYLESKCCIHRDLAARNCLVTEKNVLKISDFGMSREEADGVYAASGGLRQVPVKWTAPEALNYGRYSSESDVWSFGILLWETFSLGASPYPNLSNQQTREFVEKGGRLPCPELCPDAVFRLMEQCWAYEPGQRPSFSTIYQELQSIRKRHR

FGFR3 = FGFR3 (UniProt P22607); assay: as above
Chain of FGFR3 (P22607 whole entry, looked up): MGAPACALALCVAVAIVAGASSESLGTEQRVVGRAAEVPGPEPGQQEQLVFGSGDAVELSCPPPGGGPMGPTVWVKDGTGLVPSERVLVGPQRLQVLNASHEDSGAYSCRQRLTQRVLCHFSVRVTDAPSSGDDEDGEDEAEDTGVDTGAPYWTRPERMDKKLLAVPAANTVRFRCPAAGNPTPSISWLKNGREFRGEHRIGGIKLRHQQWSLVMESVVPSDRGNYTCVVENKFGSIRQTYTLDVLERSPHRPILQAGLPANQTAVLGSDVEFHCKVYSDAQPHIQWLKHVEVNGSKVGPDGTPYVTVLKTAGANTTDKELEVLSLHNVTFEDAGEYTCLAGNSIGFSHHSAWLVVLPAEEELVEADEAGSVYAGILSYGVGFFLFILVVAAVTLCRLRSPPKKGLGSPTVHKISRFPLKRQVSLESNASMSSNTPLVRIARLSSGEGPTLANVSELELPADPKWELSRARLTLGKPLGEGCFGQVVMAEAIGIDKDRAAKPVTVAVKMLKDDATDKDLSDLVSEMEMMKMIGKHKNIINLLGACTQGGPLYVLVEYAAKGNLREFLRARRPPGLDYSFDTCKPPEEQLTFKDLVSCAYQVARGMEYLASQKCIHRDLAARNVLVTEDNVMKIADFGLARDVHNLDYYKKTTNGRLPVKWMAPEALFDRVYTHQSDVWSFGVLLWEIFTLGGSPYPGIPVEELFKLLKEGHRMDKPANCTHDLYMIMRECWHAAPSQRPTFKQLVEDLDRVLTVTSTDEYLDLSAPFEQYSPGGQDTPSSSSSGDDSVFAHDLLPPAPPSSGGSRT

Jak2 = Jak2 (UniProt O60674); assay: as above
Chain of Jak2 (O60674 whole entry, looked up): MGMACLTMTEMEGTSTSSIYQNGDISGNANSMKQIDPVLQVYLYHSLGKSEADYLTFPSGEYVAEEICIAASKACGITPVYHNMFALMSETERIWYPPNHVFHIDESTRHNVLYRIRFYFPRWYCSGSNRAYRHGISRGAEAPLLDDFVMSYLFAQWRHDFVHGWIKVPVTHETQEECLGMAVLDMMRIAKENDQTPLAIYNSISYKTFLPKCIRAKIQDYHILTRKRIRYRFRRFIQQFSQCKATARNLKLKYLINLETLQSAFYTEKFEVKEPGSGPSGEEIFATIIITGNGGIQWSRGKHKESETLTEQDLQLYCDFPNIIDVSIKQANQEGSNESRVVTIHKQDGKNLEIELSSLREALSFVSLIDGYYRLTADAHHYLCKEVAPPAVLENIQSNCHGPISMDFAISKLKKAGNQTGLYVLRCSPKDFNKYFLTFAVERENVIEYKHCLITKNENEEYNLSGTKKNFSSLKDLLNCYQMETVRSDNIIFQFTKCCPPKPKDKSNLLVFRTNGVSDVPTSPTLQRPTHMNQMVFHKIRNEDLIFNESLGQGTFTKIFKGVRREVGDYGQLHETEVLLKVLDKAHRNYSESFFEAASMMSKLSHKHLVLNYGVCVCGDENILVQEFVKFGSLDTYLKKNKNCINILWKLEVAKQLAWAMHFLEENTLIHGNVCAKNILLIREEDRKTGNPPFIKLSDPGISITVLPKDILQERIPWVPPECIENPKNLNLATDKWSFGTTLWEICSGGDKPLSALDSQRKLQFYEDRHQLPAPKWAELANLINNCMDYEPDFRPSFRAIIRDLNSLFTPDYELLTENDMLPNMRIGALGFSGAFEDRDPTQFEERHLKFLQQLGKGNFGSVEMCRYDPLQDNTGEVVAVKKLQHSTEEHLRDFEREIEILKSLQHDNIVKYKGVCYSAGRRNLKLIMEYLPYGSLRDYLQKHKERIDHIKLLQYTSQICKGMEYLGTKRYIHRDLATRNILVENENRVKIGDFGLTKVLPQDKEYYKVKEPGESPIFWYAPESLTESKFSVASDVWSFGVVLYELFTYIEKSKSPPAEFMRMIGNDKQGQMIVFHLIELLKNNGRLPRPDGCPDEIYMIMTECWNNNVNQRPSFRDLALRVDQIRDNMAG

Fyn = Fyn (UniProt P06241); assay: as above
Chain of Fyn (P06241 whole entry, looked up): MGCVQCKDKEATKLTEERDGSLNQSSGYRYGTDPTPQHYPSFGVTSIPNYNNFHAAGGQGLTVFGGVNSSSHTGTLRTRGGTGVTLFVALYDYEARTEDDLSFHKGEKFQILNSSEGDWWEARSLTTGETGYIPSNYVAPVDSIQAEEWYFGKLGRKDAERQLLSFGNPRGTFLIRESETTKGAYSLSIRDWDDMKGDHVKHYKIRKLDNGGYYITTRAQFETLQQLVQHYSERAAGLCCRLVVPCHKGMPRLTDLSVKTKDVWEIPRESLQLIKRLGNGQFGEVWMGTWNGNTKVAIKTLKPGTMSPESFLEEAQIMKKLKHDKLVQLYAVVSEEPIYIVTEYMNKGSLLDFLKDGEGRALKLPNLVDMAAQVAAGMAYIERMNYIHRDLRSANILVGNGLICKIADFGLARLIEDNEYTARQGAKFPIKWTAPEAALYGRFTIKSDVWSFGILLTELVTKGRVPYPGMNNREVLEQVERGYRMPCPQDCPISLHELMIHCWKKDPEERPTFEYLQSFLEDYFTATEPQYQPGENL

MERTK = MERTK (UniProt Q12866); assay: as above
AncSZ = assay: as above
EPHB2 = EPHB2 (UniProt P29323); assay: as above
Chain of EPHB2 (P29323 whole entry, looked up): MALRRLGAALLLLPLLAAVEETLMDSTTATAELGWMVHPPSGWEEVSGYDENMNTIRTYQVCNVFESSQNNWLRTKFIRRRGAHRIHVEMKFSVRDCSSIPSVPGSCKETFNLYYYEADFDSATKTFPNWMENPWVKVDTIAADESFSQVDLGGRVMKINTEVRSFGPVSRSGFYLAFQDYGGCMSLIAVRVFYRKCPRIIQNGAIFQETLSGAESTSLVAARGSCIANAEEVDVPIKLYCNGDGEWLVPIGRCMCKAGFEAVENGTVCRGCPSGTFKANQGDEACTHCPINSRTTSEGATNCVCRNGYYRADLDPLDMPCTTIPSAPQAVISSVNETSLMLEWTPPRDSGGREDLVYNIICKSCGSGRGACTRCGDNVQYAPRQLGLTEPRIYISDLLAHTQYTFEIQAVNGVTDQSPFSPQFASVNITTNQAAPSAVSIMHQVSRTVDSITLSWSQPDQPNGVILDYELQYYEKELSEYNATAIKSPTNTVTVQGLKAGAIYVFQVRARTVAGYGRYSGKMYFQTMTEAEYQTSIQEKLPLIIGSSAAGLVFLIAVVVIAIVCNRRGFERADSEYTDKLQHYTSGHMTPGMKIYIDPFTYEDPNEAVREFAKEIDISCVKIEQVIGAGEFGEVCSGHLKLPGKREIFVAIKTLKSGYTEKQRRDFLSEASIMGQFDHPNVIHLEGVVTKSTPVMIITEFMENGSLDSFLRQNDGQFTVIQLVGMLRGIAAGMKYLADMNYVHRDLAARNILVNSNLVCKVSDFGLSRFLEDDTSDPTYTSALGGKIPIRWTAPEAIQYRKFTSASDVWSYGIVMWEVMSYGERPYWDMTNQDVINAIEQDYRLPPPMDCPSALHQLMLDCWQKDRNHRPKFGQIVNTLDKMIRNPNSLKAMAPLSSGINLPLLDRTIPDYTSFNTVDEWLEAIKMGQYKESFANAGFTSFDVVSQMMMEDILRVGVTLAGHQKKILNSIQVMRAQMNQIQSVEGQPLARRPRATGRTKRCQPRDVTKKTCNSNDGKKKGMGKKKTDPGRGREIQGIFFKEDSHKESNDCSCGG

Fer (mouse) = assay: as above
EPHB1 = EPHB1 (UniProt P54762); assay: as above
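For SH2 binding enrichment of the phosphorylated peptide, bacterial display in this document: peptide library displayed on the E. coli surface as eCPX fusions, selected cells deep-sequenced, score is each peptide's frequency after selection divided by its frequency in the input.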
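For phosphorylation enrichment, bacterial display in this document: 11-residue human phosphosite peptides and single-mutation variants displayed on the E. coli surface, counted by deep sequencing, each peptide's frequency after selection divided by its frequency in the unselected input library; frequency after pTyr selection over input frequency; kinase dosed for 20-30% of maximal phosphorylation in three min.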

Chain of Hck (P08631 whole entry, looked up): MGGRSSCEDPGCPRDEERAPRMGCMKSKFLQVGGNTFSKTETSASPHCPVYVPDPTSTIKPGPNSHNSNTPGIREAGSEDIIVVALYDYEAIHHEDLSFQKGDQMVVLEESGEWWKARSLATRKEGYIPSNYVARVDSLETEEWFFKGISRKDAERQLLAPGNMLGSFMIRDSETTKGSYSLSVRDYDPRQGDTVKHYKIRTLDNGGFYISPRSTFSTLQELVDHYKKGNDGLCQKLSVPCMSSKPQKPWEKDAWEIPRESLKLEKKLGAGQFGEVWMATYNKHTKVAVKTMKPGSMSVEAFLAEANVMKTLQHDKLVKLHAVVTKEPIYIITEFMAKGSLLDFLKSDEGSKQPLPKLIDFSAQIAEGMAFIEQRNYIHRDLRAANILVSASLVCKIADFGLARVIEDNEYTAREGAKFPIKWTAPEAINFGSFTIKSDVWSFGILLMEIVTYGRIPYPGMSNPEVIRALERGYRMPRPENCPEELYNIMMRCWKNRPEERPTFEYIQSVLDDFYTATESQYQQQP

Row | Sequence | SH2 binding enrichment (c-Src SH2) | SH2 binding enrichment (SHP2-C SH2) | SH2 binding enrichment (Grb2 SH2) | phosphorylation enrichment (Hck) | phosphorylation enrichment (c-Abl (mouse)) | phosphorylation enrichment (FGFR1) | phosphorylation enrichment (c-Src) | phosphorylation enrichment (Fes) | phosphorylation enrichment (FGFR3) | phosphorylation enrichment (Jak2) | phosphorylation enrichment (Fyn) | phosphorylation enrichment (MERTK) | phosphorylation enrichment (AncSZ) | phosphorylation enrichment (EPHB2) | phosphorylation enrichment (Fer (mouse)) | phosphorylation enrichment (EPHB1)
1 | PYRQWYESHYA [RPS8_Y113] | 1.59 | 1.09 | 1.33 | 1.3 | 1.19 | 1.36 | 2.35 | 1.69 | 1.1 | 1.37 | 1.09 | 1.86 | 1.61 | 2.27 | 10.9 | 2.82
2 | PYYTSYPPSPD [GDAP2_Y491] | 1.28 | 1.01 | 0.728 | 2.39 | 1.67 | 4.8 | 6.44 | 1.03 | 3.57 | 3.58 | 5.09 | 9.55 | 1.38 | 5.06 | 0.676 | 3.43
3 | QADVIYVNTQL [MERTK_Y872] | 0.608 | 0.699 | 1.26 | 2.19 | 1 | 2.29 | 1.27 | 1.43 | 1.4 | 1.18 | 2.13 | 0.925 | 1.61 | 0.962 | 8.63 | 2.52
4 | QAEELYFGKMG [YES1_Y159_W158L] | 0.483 | 0.455 | 0.795 | 5.82 | 2.25 | 1.49 | 3.55 | 1.55 | 1.55 | 1.14 | 3.61 | 1.87 | 2.15 | 0.837 | 0.747 | 0.861
5 | QAKRKYQEASK [FES_Y156] | 0.602 | 0.701 | 1.16 | 0.489 | 0.491 | 0.495 | 0.488 | 0.772 | 0.441 | 0.429 | 0.544 | 0.418 | 0.46 | 0.459 | 0.481 | 0.342
6 | QAPPVYLDVLG [NTRK1_Y791] | 0.723 | 0.765 | 1.03 | 1.02 | 0.954 | 2.33 | 0.727 | 1.45 | 1.49 | 1.16 | 1.01 | 0.901 | 1.17 | 1.34 | 0.69 | 4.2
7 | QDEHGYISLCF [HSPB1_Y133_R136L] | 0.485 | 0.579 | 0.637 | 1.17 | 2.42 | 1.48 | 1.16 | 3.71 | 2.09 | 3.37 | 1.05 | 1.36 | 2.22 | 1.22 | 1.08 | 1.56
8 | QDTSRYTVCNL [BIRC3_Y245_S248C] | 1.29 | 0.78 | 0.79 | 0.359 | 0.854 | 0.418 | 0.439 | 0.815 | 0.469 | 0.741 | 0.546 | 0.348 | 0.745 | 0.439 | 0.557 | 0.528
9 | QEGPEYWDRET [HLA-A_Y83_Q86R] | 0.533 | 0.539 | 0.787 | 0.871 | 1.44 | 0.85 | 0.814 | 2.45 | 1.08 | 2.21 | 0.692 | 0.924 | 2.03 | 0.946 | 0.92 | 1.16
10 | QEIATYRPLLE [KRT14_Y415_R417P] | 0.422 | 0.64 | 0.647 | 0.674 | 0.922 | 0.78 | 0.705 | 1.24 | 0.834 | 1.04 | 0.961 | 0.504 | 1.02 | 0.65 | 0.643 | 0.791
11 | QEIATYRRLRE [KRT17_Y384_L388R] | 0.441 | 0.478 | 0.75 | 0.779 | 0.597 | 0.77 | 0.537 | 0.936 | 0.933 | 0.558 | 0.61 | 0.798 | 0.734 | 0.557 | 0.508 | 0.64
12 | QELRRYLKSSV [MICA_Y194_G198S] | 0.426 | 0.502 | 0.732 | 0.653 | 0.349 | 0.44 | 0.298 | 0.6 | 0.483 | 0.457 | 0.36 | 0.213 | 0.543 | 0.349 | 0.292 | 0.322
13 | QEMMEYRHQIQ [DES_Y324] | 0.485 | 0.579 | 1.22 | 0.902 | 1.86 | 0.677 | 1.12 | 2.13 | 1.04 | 2.03 | 0.559 | 0.762 | 2.04 | 0.833 | 0.303 | 0.93
14 | QFFQSYFNNNF [ZNF236_Y644] | 0.755 | 1.02 | 1.57 | 0.532 | 0.455 | 0.643 | 0.549 | 1.14 | 0.841 | 1.6 | 0.682 | 0.627 | 0.766 | 0.29 | 0.37 | 0.981
15 | QFKDKYLAKHN [CASK_Y712_YF] | 0.914 | 1.3 | 0.83 | 0.384 | 0.35 | 0.383 | 0.34 | 0.467 | 0.298 | 0.788 | 0.266 | 0.403 | 0.519 | 0.268 | 0.433 | 0.53
16 | QFPDVYAREEV [CRX_Y67_YF] | 0.658 | 0.776 | 0.854 | 0.645 | 0.68 | 0.649 | 0.672 | 1.43 | 0.693 | 1.53 | 0.624 | 0.603 | 1.06 | 0.489 | 0.879 | 0.514
17 | QGCSIYKDYYR [PLA2G2D_Y82] | 0.738 | 0.813 | 1.02 | 2.92 | 0.731 | 1.27 | 4.85 | 1.47 | 1.57 | 1.08 | 3.56 | 0.67 | 1.29 | 0.734 | 0.724 | 1.68

Row | Sequence | SH2 binding enrichment (c-Src SH2) | SH2 binding enrichment (SHP2-C SH2) | SH2 binding enrichment (Grb2 SH2) | phosphorylation enrichment (Hck) | phosphorylation enrichment (c-Abl (mouse)) | phosphorylation enrichment (FGFR1) | phosphorylation enrichment (c-Src) | phosphorylation enrichment (Fes) | phosphorylation enrichment (FGFR3) | phosphorylation enrichment (Jak2) | phosphorylation enrichment (Fyn) | phosphorylation enrichment (MERTK) | phosphorylation enrichment (AncSZ) | phosphorylation enrichment (EPHB2) | phosphorylation enrichment (Fer (mouse)) | phosphorylation enrichment (EPHB1)
18 | QGLRLYRPHLA [BTK_Y617] | 0.988 | 1.04 | 1.4 | 0.437 | 0.775 | 0.501 | 0.438 | 1.12 | 0.76 | 1.15 | 0.461 | 0.382 | 1.16 | 0.697 | 0.542 | 0.515
19 | QGRQTYLPQPA [DDR2_Y813] | 0.553 | 0.44 | 0.627 | 0.713 | 0.844 | 0.552 | 0.477 | 0.821 | 0.485 | 0.778 | 0.495 | 0.433 | 0.752 | 0.473 | 0.408 | 0.527
20 | QLCVSYPGGFT [PROS1_Y259_N258S_YF] | 0.535 | 0.687 | 0.711 | 0.682 | 1.24 | 0.496 | 0.658 | 1.47 | 0.892 | 1.45 | 0.663 | 0.578 | 1.12 | 0.546 | 0.775 | 0.481
21 | QMRLRYLAAEE [CEP120_Y884] | 0.445 | 0.982 | 0.664 | 0.776 | 0.916 | 0.931 | 0.647 | 1.41 | 0.874 | 1.3 | 0.845 | 0.423 | 1.11 | 0.643 | 0.563 | 0.741
22 | QMVGMYASFYM [AVPR2_Y124_S127F] | 0.538 | 0.842 | 0.784 | 5.46 | 3.61 | 0.45 | 6.92 | 1.65 | 1 | 1.79 | 7.85 | 4.41 | 1.35 | 1.92 | 3.65 | 2.49
23 | QPSPSYDSSRG [TCF12_Y70] | 0.393 | 0.733 | 0.773 | 0.553 | 0.521 | 0.561 | 0.482 | 0.661 | 0.557 | 0.455 | 0.623 | 0.414 | 0.68 | 0.626 | 0.457 | 0.534
24 | QQLQGYVPSNY [FRK_Y99_I100V] | 0.562 | 0.604 | 0.775 | 0.537 | 0.64 | 0.458 | 0.413 | 0.874 | 0.733 | 0.822 | 0.486 | 0.396 | 0.554 | 0.36 | 0.45 | 0.552
25 | QRALLYEDTLY [UNC13D_Y56_A59T] | 0.885 | 0.537 | 0.62 | 4.67 | 0.819 | 0.648 | 3.24 | 2.2 | 1.02 | 0.942 | 3.98 | 6 | 1.54 | 12.5 | 12.1 | 15.2
26 | QRRLVYYEGGA [RYR1_Y245] | 1.06 | 0.803 | 1.17 | 0.421 | 0.728 | 0.497 | 0.583 | 1.11 | 0.602 | 0.682 | 0.369 | 1.15 | 0.788 | 0.606 | 0.536 | 0.402
27 | QSVEPYTKQQL [STAT3_Y640] | 0.528 | 0.649 | 0.978 | 0.641 | 0.81 | 0.553 | 0.626 | 0.783 | 0.558 | 0.755 | 0.536 | 0.709 | 0.715 | 0.695 | 0.543 | 0.614
28 | QTENKYVSVSG [EIF2AK3_Y565_D566V] | 0.828 | 2.59 | 0.707 | 0.85 | 0.938 | 0.527 | 0.693 | 1.51 | 0.581 | 0.754 | 0.627 | 0.548 | 0.61 | 0.683 | 0.626 | 0.808
29 | QTLEAYIRWNK [SPAST_Y604] | 0.919 | 1.61 | 1.26 | 0.472 | 0.913 | 0.615 | 0.488 | 1.44 | 0.935 | 1.09 | 0.452 | 0.45 | 1.2 | 0.588 | 0.62 | 0.703
30 | RAMPVYEKAEH [TP63_Y231_K232E] | 2.1 | 0.574 | 1.07 | 1.02 | 0.576 | 0.493 | 0.776 | 0.598 | 0.545 | 1.03 | 0.867 | 0.453 | 0.664 | 0.834 | 1.79 | 0.654
31 | RASGIYYVPKG [APBB1IP_Y340] | 0.955 | 0.767 | 1.1 | 15.1 | 43.9 | 5.75 | 8.24 | 1.24 | 5.79 | 4.09 | 15.1 | 19.8 | 1.39 | 9.84 | 1.82 | 16.6
32 | RDMNAYIRPSP [MMAA_Y207] | 0.581 | 0.693 | 0.804 | 0.8 | 1.32 | 0.804 | 0.971 | 1.24 | 1.02 | 1.57 | 1.01 | 1.02 | 1.03 | 1.02 | 1.19 | 0.444
33 | REENGYNTYAS [FGF10_Y161_I156R] | 0.509 | 1.11 | 0.673 | 1.3 | 1.25 | 0.761 | 0.9 | 1.73 | 1.03 | 1.27 | 1.21 | 0.568 | 1.22 | 0.962 | 0.559 | 0.856

From the supplement of paper PMC10065799, “High-throughput profiling of sequence recognition by tyrosine kinases and SH2 domains using bacterial peptide display” (eLife, 2023)
